Experimental data as given in publication PMC5571939, “The nature of the Syntaxin4 C-terminus affects Munc18c-supported SNARE assembly” (PLoS ONE, 2017).

B3: Sx4_(1-275)-His (domain or fragment, rat, UniProt Q08850 1-275, looked up)
chain: MRDRTHELRQGDNISDDEDEVRVALVVHSGAARLSSPDDEFFQKVQTIRQTMAKLESKVRELEKQQVTILATPLPEESMKQGLQNLREEIKQLGREVRAQLKAIEPQKEEADENYNSVNTRMKKTQHGVLSQQFVELINKSNSMQSEYREKNVERIRRQLKITNAGMVSDEELEQMLDSGQSEVFVSNILKDTQVTRQALNEISARHSEIQQLERSIRELHEIFTFLATEVEMQGEMINRIEKNILSSADYVERGQEHVKIALENQKKARKKKVM
notes: also called Syntaxin4 soluble cytoplasmic domain with C-terminal His6; source: E. coli, purified as described previously [17, 28]; not shown: His6, C-terminal, kept

Tests used:
Conditions in all cases: both partners purified
[1] = target: T1, Munc18c:Sx4_(1-298)-TMD (HL-Munc18c with de-tagged full-length Sx4, pre-formed) (mouse, UniProt Q60770 1-592; P70452 1-298); assay: pull-down; beads with pre-formed HL-Munc18c/Sx4 binary complexes incubated with SNAP23 (100 μg, 21.7 μM) and VAMP2 (80 μg, 31.7 μM) together, overnight, 4°C; SDS-PAGE, Coomassie
T1 construct: Munc18c (Munc18-3), mouse; as m12; Syntaxin4 (Sx4) with its C-terminal transmembrane domain, mouse, amino acids 1-298; as m6; also called HL-Munc18c/Sx4 binary complex; source: formed on TALON Co2+ beads from purified E. coli proteins; not shown: His6 with long linker ([residues removed]), N-terminal, kept; His6, N-terminal, cleaved
T1 sequence (looked up) 1: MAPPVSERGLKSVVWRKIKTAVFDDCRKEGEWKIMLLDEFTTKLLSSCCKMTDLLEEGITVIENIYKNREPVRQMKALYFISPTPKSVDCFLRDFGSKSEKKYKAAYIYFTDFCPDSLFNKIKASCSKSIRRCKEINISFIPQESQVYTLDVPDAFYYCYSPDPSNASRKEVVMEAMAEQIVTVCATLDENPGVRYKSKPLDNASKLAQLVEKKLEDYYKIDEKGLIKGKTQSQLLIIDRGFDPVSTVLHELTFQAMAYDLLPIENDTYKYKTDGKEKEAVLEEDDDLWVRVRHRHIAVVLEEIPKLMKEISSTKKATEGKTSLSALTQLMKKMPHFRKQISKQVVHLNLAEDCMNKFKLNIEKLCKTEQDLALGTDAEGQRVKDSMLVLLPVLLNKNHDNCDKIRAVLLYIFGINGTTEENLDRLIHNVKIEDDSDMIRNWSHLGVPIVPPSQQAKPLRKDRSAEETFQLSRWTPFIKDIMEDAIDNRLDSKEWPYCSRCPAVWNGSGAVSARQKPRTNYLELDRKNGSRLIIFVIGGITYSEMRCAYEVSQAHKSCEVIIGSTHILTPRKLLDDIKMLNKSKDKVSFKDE
T1 sequence (looked up) 2: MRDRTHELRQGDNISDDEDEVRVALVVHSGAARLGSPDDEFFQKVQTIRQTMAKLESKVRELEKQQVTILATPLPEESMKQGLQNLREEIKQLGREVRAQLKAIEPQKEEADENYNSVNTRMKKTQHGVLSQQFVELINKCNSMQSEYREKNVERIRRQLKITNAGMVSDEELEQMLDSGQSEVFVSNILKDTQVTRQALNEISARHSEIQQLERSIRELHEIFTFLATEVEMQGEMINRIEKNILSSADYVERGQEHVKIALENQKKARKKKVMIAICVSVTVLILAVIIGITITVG

Sx4_(1-275)-His = target: B3; assay: pull-down; Sx4-His proteins immobilised by C-terminal His6 on Co2+ resin, pre-complexed with de-tagged Munc18c or without it (controls); GST-cleaved SNAP23 and VAMP2 (40 μg) added together, overnight, 4°C; SDS-PAGE, Coomassie
[2] = target: T2, Munc18c:Sx4_(1-275)-His pre-formed complex (rat | mouse, UniProt Q08850 1-275; Q60770 1-592, C141S); assay: as above
T2 construct: as m1; Munc18c (Munc18-3), mouse; as m10; m1 immobilised by its C-terminal His6 and complexed with m10 before SNAP23 and VAMP2 were added; also called Munc18c/Sx4-His; source: formed on TALON Co2+ beads from purified E. coli proteins; not shown: His6, C-terminal, kept; His6, N-terminal, cleaved
T2 sequence (looked up) 1: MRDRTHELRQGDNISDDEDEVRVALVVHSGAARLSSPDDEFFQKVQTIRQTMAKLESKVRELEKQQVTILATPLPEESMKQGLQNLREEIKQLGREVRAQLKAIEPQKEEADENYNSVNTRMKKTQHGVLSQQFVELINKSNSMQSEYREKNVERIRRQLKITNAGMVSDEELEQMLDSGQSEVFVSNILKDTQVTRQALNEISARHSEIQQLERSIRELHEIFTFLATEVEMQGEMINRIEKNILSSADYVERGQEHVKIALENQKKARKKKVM
T2 sequence (looked up) 2: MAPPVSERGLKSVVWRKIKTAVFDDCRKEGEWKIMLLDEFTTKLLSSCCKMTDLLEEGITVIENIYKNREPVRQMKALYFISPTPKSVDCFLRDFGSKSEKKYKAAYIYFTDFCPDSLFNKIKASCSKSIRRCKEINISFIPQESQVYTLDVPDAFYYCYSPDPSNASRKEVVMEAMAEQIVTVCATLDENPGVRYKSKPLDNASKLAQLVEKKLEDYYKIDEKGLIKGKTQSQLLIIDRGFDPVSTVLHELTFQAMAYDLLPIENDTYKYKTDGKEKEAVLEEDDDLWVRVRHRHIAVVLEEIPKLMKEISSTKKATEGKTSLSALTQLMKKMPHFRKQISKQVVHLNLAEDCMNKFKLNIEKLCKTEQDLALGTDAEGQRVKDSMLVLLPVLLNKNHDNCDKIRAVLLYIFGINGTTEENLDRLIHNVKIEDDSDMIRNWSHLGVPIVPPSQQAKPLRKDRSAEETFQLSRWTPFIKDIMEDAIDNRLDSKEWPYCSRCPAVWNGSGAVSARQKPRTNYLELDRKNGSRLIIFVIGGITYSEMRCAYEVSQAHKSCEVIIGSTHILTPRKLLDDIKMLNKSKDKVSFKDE

HMunc18c = target: T3, HMunc18c (mouse, UniProt Q60770 1-592); assay: fluorescence polarisation; fluorescence anisotropy kinetics, both in solution: Alexa488-labeled Sx4 (50 nM) with HMunc18c at 100–2500 nM; 25°C; 25 mM HEPES pH 8.0, 200 mM NaCl, 1 mM TCEP, 2% glycerol; global 1:1 fit (Dynafit 4.0)
T3 construct: Munc18c (Munc18-3), mouse; also called Munc18c with an N-terminal His6-tag; source: E. coli, purified as described previously [39]; not shown: His6, N-terminal, kept
T3 sequence (looked up): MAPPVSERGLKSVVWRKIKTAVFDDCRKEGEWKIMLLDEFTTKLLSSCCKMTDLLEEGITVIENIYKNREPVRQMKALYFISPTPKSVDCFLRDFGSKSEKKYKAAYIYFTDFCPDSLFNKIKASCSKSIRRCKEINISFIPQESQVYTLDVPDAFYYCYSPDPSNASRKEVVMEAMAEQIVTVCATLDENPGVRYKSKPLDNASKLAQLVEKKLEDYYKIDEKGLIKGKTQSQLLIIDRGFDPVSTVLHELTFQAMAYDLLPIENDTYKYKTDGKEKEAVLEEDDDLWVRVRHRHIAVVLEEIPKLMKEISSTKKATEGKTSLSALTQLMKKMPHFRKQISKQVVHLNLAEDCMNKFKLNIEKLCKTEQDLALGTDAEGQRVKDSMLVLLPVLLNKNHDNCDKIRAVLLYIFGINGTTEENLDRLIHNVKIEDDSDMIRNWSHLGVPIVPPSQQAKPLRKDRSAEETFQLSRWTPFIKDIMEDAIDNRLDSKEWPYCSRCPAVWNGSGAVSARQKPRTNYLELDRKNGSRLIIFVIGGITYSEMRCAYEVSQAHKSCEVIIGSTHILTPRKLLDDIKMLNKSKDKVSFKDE

Munc18c (de-tagged) = target: T4, Munc18c (de-tagged) (mouse, UniProt Q60770 1-592); assay: BLI; C-terminally His-tagged Sx4 constructs loaded on Ni-NTA biosensors; de-tagged Munc18c 10/25–400 nM in solution; 25 mM Tris-Cl pH 7.5, 150 mM NaCl, 10 mM imidazole, 0.1% TX-100, 10% glycerol, 2 mM βME; BLItz; 1:1 fit
T4 construct: Munc18c (Munc18-3), mouse; also called detagged Munc18c; HTMunc18c after TEV cleavage; source: E. coli, purified (IMAC, TEV cleavage, reverse IMAC, SEC); not shown: His6, N-terminal, cleaved
T4 sequence (looked up): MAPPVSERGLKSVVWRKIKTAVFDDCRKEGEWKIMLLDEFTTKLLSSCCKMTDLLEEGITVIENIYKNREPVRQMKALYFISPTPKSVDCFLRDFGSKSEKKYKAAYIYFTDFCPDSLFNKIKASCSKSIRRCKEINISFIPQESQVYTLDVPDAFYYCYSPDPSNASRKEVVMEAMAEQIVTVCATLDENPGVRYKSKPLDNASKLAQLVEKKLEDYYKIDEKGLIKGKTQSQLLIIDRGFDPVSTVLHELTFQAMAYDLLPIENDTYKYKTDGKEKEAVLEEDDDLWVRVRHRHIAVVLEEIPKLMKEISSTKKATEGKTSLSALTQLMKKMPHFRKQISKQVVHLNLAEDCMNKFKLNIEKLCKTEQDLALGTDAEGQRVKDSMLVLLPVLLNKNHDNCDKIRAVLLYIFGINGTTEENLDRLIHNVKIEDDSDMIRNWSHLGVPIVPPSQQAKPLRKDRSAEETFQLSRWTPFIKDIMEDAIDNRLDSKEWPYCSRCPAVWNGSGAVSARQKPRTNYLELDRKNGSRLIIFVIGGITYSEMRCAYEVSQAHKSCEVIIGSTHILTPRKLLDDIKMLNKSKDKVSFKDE

B1: SNAP23 (GST-cleaved) (natural protein, mouse, UniProt O09044 1-210, looked up)
chain: MDNLSPEEVQLRAHQVTDESLESTRRILGLAIESQDAGIKTITMLDEQGEQLNRIEEGMDQINKDMREAEKTLTELNKCCGLCICPCNRTKNFESGKNYKATWGDGGDNSPSNVVSKQPSRITNGQPQQTTGAASGGYIKRITNDAREDEMEENLTQVGSILGNLKNMALDMGNEIDAQNQQIQKITEKADTNKNRIDIANTRAKKLIDS
notes: SNAP23, mouse, amino acids 1-210; source: purified (GSH-agarose, thrombin cleavage, MonoQ anion exchange)
B1: binds [1]; binds (Sx4_(1-275)-His); binds [2].

B2: Alexa488-labeled Sx4_(1-275)-His (native C141) (domain or fragment, rat, UniProt Q08850 1-275, looked up)
chain: MRDRTHELRQGDNISDDEDEVRVALVVHSGAARLSSPDDEFFQKVQTIRQTMAKLESKVRELEKQQVTILATPLPEESMKQGLQNLREEIKQLGREVRAQLKAIEPQKEEADENYNSVNTRMKKTQHGVLSQQFVELINKCNSMQSEYREKNVERIRRQLKITNAGMVSDEELEQMLDSGQSEVFVSNILKDTQVTRQALNEISARHSEIQQLERSIRELHEIFTFLATEVEMQGEMINRIEKNILSSADYVERGQEHVKIALENQKKARKKKVM
modifications: Alexa Fluor 488 C5 maleimide on cysteine (native C141 rather than C141S)
notes: Degree of labeling greater than 90%; not shown: His6, C-terminal, kept
Work on B2 yielded a Kd (HMunc18c) of 502 nM, a koff (HMunc18c) of 0.000653 s⁻¹ and a kon (HMunc18c) of 1300 M⁻¹ s⁻¹.

In the case of B3, the Kd (Munc18c (de-tagged)) is reported as 21 nM, the koff (Munc18c (de-tagged)) is reported as 0.0086 s⁻¹ and the kon (Munc18c (de-tagged)) is reported as 530000 M⁻¹ s⁻¹.
